Measurements published in patent US20260125455A1 (CLEVELAND CLINIC FOUNDATION, published 2026).

Experiments:
[1] = molecular target: T1, human complement protein C6 (human, UniProt P13671 22-934); test: C6-binding ELISA, A650 nm; sample 'mouse serum' (28 days at 37 C)
T1 construct: also called human C6; C6 antigen
Protocol: (§1) For the serum stability assessment, samples of the purified candidate antibodies are normally incubated in mouse, human and cynomolgus serum at 37 C for 28 days and then tested in an antigen-binding ELISA. Since the anti-C6 antibodies are expected to bind to both human and cynomolgus C6 but not mouse C6, we anticipated that incubating in human or cynomolgus sera would reduce ELISA binding due to occupation of the antibody binding sites by C6 protein from the sera. Therefore, the chimeric and humanized antibodies were tested with human and mouse sera and with human sera from which the C6 protein has been depleted. […]
(§2) Binding ELISAs used Nunc Maxisorp 384-well plates, wells coated with C6, C5b,6 complex or C5 (Complement Technology Inc, TX) and goat anti-human IgG (Fab specific) peroxidase secondary antibodies (Sigma-Aldrich, A0293) for detection. For the thermal stability assay, IgG supernatants were diluted to their EC₈₀ concentration, incubated at different temperatures for 10 min and C6 binding measured by ELISA with the binding signal plotted against temperature. Kinetics of C6 binding were measured by capturing antibodies from supernatant samples using Protein G biosensors and performing a 20 min association step with 2.5 nM C6 and a 20 min dissociation step using the Octet RED96. […]

[2] = molecular target: T1, human complement protein C6; test: C6-binding ELISA, A650 nm; sample 'human serun' (human serum, 28 days at 37 C)
Protocol: as §1, §2

[3] = molecular target: T1, human complement protein C6; test: C6-binding ELISA, A650 nm; sample 'PBS, non-incubated' (kept at 4 C)
Protocol: (§3) The C6-binding ELISA was then used to compare the binding abilities of the C601 antibodies that had been incubated in the 3 different sera to antibody samples that were incubated in PBS at 37 C or kept at 4 C (non-incubated).
(§4) Binding ELISAs used Nunc Maxisorp 384-well plates, wells coated with C6, C5b,6 complex or C5 (Complement Technology Inc, TX) and goat anti-human IgG (Fab specific) peroxidase secondary antibodies (Sigma-Aldrich, A0293) for detection. For the thermal stability assay, IgG supernatants were diluted to their EC₈₀ concentration, incubated at different temperatures for 10 min and C6 binding measured by ELISA with the binding signal plotted against temperature. Kinetics of C6 binding were measured by capturing antibodies from supernatant samples using Protein G biosensors and performing a 20 min association step with 2.5 nM C6 and a 20 min dissociation step using the Octet RED96. […] Binding of C6 measured using a three-fold concentration series of C6 from 0.03 nM-25 nM and data were fitted using a 1:1 model in two independent experiments.
(§5) The Uncle instrument (Unchained Labs) was used to monitor unfolding via intrinsic fluorescence and aggregation by static light scattering across a temperature gradient to obtain melting temperatures (Tₘ). […] Isoelectric points were determined by capillary isoelectric focusing using a PA800+ (Beckman Coulter).

[4] = molecular target: T1, human complement protein C6; test: SPR (Biacore 8K), IgG on protein G chip, C6 0.31-20 nM 2-fold series, 1:1 fit
Protocol: (§6) The kinetics of C6 binding was compared for the purified chimeric and lead humanized C601 using surface plasmon resonance (SPR, Biacore 8K). IgG were captured on a protein G sensor chip and binding of C6 measured using a three-fold concentration series of C6 from 0.03 nM-25 nM (FIG. 5). In a second experiment, a two-fold concentration series from 0.31 nM-20 nM C6 was used (FIG. 6). For all antibodies, binding of C6 occurred in a concentration-dependent manner and data could be fitted using a 1:1 model to calculate the association rate (kₒₙ), dissociation rates (kd) and affinity constant (KD). The kinetic data are shown in Table 5, which indicates only small differences between the parameters determined from the two independent experiments.

[5] = molecular target: T1, human complement protein C6; test: SPR (Biacore 8K), IgG on protein G chip, C6 0.03-25 nM 3-fold series, 1:1 fit
Protocol: as §6
(§7) Binding ELISAs used Nunc Maxisorp 384-well plates, wells coated with C6, C5b,6 complex or C5 (Complement Technology Inc, TX) and goat anti-human IgG (Fab specific) peroxidase secondary antibodies (Sigma-Aldrich, A0293) for detection. For the thermal stability assay, IgG supernatants were diluted to their EC₈₀ concentration, incubated at different temperatures for 10 min and C6 binding measured by ELISA with the binding signal plotted against temperature. Kinetics of C6 binding were measured by capturing antibodies from supernatant samples using Protein G biosensors and performing a 20 min association step with 2.5 nM C6 and a 20 min dissociation step using the Octet RED96. Precise kinetic measurements were obtained by surface plasmon resonance (Biacore 8K, Cytiva). The IgG were captured on a protein G sensor chip. Binding of C6 measured using a three-fold concentration series of C6 from 0.03 nM-25 nM and data were fitted using a 1:1 model in two independent experiments.

[6] = molecular target: human complement protein C5 (human, UniProt P01031 19-673; P01031 678-1676); test: ELISA, C5-coated wells
Chain of human complement protein C5 (P01031 19-673 limits assumed, chain 1 of 2): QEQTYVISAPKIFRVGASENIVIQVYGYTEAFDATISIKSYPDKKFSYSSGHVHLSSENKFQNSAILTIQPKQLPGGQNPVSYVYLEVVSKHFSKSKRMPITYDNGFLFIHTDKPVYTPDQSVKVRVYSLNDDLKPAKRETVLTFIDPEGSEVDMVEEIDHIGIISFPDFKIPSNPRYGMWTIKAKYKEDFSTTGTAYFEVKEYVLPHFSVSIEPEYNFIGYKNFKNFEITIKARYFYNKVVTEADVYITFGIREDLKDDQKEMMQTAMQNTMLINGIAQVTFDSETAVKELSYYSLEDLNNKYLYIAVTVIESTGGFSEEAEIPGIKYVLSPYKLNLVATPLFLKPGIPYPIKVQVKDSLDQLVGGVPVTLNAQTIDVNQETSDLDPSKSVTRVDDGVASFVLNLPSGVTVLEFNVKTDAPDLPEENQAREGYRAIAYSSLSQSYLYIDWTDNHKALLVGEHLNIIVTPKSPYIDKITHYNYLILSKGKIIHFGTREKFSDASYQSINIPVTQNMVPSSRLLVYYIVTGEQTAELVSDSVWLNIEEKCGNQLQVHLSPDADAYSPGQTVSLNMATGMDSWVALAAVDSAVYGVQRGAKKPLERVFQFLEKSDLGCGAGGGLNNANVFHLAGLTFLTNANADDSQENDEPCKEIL
Chain of human complement protein C5 (P01031 678-1676 limits assumed, chain 2 of 2): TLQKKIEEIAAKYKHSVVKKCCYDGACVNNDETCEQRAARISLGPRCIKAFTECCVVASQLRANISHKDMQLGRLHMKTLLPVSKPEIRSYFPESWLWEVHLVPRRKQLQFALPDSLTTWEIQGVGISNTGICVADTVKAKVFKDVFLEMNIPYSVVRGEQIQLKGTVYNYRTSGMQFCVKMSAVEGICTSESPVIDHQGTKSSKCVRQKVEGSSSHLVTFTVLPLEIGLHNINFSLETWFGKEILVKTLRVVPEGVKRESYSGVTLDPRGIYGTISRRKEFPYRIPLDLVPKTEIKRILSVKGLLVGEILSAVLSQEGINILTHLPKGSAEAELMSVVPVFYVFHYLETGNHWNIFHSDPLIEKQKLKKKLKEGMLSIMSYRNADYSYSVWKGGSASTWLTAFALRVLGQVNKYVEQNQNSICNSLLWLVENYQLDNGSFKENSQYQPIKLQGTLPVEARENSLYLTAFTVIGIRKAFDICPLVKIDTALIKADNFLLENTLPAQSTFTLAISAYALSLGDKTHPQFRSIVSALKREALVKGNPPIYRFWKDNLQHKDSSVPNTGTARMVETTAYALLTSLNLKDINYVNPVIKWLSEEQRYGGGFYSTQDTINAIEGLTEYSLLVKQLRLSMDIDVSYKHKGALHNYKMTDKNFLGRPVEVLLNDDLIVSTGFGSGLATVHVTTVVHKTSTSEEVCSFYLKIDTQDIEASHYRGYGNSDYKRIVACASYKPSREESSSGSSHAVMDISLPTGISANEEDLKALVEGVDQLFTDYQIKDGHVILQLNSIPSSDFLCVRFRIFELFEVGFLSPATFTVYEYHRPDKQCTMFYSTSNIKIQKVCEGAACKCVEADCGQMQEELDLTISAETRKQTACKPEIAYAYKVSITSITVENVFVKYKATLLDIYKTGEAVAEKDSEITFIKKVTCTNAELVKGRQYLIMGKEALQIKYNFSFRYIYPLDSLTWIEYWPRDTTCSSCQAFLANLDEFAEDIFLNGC
Protocol: The 20 purified antibodies were tested by ELISA for their abilities to bind human complement proteins C5, C5b6 and C6. The antibodies were divided into two sets for this analysis. MoC601 HuG4K and HuG4K isotype controls were included alongside each set, as was C601HFKC4 HuG4K (aka 3713) expression supernatant from the original transfection as an additional positive control. In addition, three humanized antibodies (C601HFKC4 HuG4K, C601HPKI HuG4K and C601HPKC4 HuG4K) were included within both sets to allow better comparison between the plates. The antibodies all show specificity for C6 with no detectable binding to C5. All humanized antibodies bind to C6 and to C6 as part of the C5b6 complex. The lower plateaus of the C5b6 complex binding curves are explained by less C6 protein being available for binding when wells are coated with C5b6 complex as opposed to C6 alone. […] The EC₅₀ values are included in the figure but slightly different plateau levels observed for the antibodies are influencing the apparent EC₅₀ values. However, it was noted that the EC₅₀ values tended to be lower on the plates for the second set of antibodies. For this reason, a subset of the 20 antibodies was tested in a further ELISA for binding to C6 and C5b6 complex.
as §7

[7] = molecular target: T1, human complement protein C6; test: C6-binding ELISA, A650 nm; sample 'PBS' (28 days at 37 C)
Protocol: (§8) For the serum stability assessment, samples of the purified candidate antibodies are normally incubated in mouse, human and cynomolgus serum at 37 C for 28 days and then tested in an antigen-binding ELISA. Since the anti-C6 antibodies are expected to bind to both human and cynomolgus C6 but not mouse C6, we anticipated that incubating in human or cynomolgus sera would reduce ELISA binding due to occupation of the antibody binding sites by C6 protein from the sera. Therefore, the chimeric and humanized antibodies were tested with human and mouse sera and with human sera from which the C6 protein has been depleted. The C6-binding ELISA was then used to compare the binding abilities of the C601 antibodies that had been incubated in the 3 different sera to antibody samples that were incubated in PBS at 37 C or kept at 4 C (non-incubated).
as §5, with “Coulter). […]” for “Coulter).”

[8] = molecular target: T1, human complement protein C6; test: ELISA, C6-coated wells, large-scale purified antibody
[9] = molecular target: T1, human complement protein C6; test: C6-binding ELISA, A650 nm; sample 'C6-depleted human serum' (28 days at 37 C)
Protocol: as §1, §2

[10] = molecular target: T1, human complement protein C6; test: SPR (Biacore 8K)
Protocol: as §6, §7

[11] = molecular target: T1, human complement protein C6; test: C6-binding ELISA, A650 nm; sample 'PBS' (28 days at 37 C) [cont.) D]
Protocol: as §1, §2

[12] = molecular target: T1, human complement protein C6; test: C6-binding ELISA, A650 nm; sample 'mouse serum' (28 days at 37 C) [cont.) D]
Protocol: as §8
as §5, with “Coulter). […]” for “Coulter).”

[13] = molecular target: T1, human complement protein C6; test: C6-binding ELISA, A650 nm; sample 'PBS, non-incubated' (kept at 4 C) [cont.) D]
Protocol: as §3, §4, §5

[14] = molecular target: T1, human complement protein C6; test: C6-binding ELISA, A650 nm; sample 'human serun' (human serum, 28 days at 37 C) [cont.) D]
Protocol: as §8
as §5, with “Coulter). […]” for “Coulter).”

[15] = molecular target: T1, human complement protein C6; test: C6-binding ELISA, A650 nm; sample 'C6-depleted human serum' (28 days at 37 C) [cont.) D]
Protocol: as §8
as §5, with “Coulter). […]” for “Coulter).”

[16] = molecular target: T1, human complement protein C6; test: ELISA, purified protein, anti-human IgG (Fab-specific) detection
Protocol: The binding of the purified chimeric molecules, MoC601 HuG4K and MoC601 HuG1KFab, was also confirmed by ELISA, where the anti-human IgG (Fab-specific) secondary reagent was used. The control mouse antibody bound as previously (EC₅₀ 0.11 nM). The EC₅₀ for purified MoC601 HuG4K (0.27 nM) was similar to that obtained for the MoC601 HuG4K supernatant sample above. […] The EC₅₀ value for the Fab molecule (0.48 nM) was higher than for the antibody, which would be expected since the Fab is unable to bind bivalently to the antigen on the well. A C6-binding assay was also set up on the Octet RED384 instrument. […] However, MoC601 MoG1K could be stably loaded onto anti-mouse Fc (AMC) biosensors. Concentrations of the mouse and chimeric antibodies were adjusted to give similar levels of loading on to the AMC and […]

T1 sequence (P13671 22-934 limits assumed): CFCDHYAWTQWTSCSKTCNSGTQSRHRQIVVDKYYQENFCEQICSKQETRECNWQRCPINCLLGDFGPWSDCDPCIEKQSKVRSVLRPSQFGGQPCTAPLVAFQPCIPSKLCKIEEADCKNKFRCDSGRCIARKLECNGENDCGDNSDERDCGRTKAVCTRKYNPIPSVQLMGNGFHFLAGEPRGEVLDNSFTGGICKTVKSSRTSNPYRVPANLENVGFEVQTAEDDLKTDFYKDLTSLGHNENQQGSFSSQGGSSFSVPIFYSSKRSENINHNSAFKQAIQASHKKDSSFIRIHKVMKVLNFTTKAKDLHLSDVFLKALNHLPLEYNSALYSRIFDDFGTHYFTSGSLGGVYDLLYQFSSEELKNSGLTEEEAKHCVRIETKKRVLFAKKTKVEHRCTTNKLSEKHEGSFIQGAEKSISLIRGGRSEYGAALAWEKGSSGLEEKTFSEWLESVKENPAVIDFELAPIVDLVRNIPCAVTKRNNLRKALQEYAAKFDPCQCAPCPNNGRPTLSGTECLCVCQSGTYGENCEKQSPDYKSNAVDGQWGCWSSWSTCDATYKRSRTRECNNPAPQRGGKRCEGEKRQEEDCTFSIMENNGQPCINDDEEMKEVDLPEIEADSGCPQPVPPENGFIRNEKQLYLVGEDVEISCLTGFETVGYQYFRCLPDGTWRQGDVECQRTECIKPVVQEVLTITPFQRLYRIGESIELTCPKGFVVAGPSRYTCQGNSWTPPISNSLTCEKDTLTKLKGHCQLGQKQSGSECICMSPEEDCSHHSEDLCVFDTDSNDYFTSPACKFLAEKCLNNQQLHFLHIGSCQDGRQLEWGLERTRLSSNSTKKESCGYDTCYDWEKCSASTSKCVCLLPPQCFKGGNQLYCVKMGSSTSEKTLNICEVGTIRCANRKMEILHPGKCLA

Binder | EC50 [1] [nM] | EC50 [2] [nM] | EC50 [3] [nM] | Kd [4] [nM] | koff [4] [s⁻¹] | kon [4] [M⁻¹ s⁻¹] | Kd [5] [nM] | koff [5] [s⁻¹] | kon [5] [M⁻¹ s⁻¹] | binding result [6] | EC50 [7] [nM] | EC50 [8] [nM] | EC50 [9] [nM] | Kd [10] [nM] | EC50 [11] [nM] | EC50 [12] [nM] | EC50 [13] [nM] | EC50 [14] [nM] | EC50 [15] [nM] | EC50 [16] [nM]
C601HFKI HuG4K (antibody, human IgG4 S228P, kappa) heavy: not shown light: EIVLTQSPATLSLSPGERATLSCRASSSVSYLHWYQQKPGQSPRLWIYDTSKRATGIPARFSGSGSGTDYTLTISSLEPEDFAVYYCQQWTSNPLTFGQGTKLEIKRTVAAPSVFIFPPSDEQLKSGTASVVCLLNNFYPREAKVQWKVDNALQSGNSQESVTEQDSKDSTYSLSSTLTLSKADYEKHKVYACEVTHQGLSSPVTKSFNRGEC | 0.18 | 0.2 | 0.2 | 0.279 | 0.000317 | 1.14e+06 | 0.348 | 0.000308 | 890000 | no binding | 0.22 | 0.22 | 0.19 | 0.348 | – | – | – | – | – | –
C601HPKI HuG4K (antibody, human IgG4 S228P, kappa) heavy: not shown light: EIVLTQSPATLSLSPGERATLSCRASSSVSYLHWYQQKPGQSPRLWIYDTSKRATGIPARFSGSGSGTDYTLTISSLEPEDFAVYYCQQWTSNPLTFGQGTKLEIKRTVAAPSVFIFPPSDEQLKSGTASVVCLLNNFYPREAKVQWKVDNALQSGNSQESVTEQDSKDSTYSLSSTLTLSKADYEKHKVYACEVTHQGLSSPVTKSFNRGEC | – | – | – | 0.295 | 0.000361 | 1.23e+06 | 0.433 | 0.000445 | 1.03e+06 | no binding | – | 0.17 | – | 0.433 | 0.17 | 0.15 | 0.14 | 0.19 | 0.19 | –
MoC601 HuG1KFab (Fab, V domains shown, also called chimeric Fab; Fab molecule) VH: QVQLQQSGAELVKPGASVKISCKASGYAFSDYWMNWVKQRPGKGLEWIGQIYPGDDDTNYNGKFKGKATLTADKSSSTAYMQLSSLTSEDSAVYFCAREGYYGYTYVEYFDVWGTGTTVTVSS VL: QIVLTQSPAIMSVSPGEKVTLTCSASSSVSYMHWYQQKSGTSPKRWIYDTSKLASGVPARFSGSGSGTSYSLTISSMEAEDAATYYCQQWTSNPLTFGAGTKLELRR | – | – | – | – | – | – | – | – | – | – | – | – | – | – | – | – | – | – | – | 0.48
